Measured values from patent US20230192845A1 (BLINK BIOMEDICAL, published 2023).

B1: BL006-19-14G3-14K1 (antibody, V domains shown)
VH: QVTLKESGPGILQPSQTLSLTCSFSGFSLDTFGMGVGWIRQSSGKGLEWLAHIWWDDDKFYNPALKSRLTVSKDTSKNQVFLKIANVDTADTATYYCAHYYGSLSFDVWGTGTTVTVSS
VL: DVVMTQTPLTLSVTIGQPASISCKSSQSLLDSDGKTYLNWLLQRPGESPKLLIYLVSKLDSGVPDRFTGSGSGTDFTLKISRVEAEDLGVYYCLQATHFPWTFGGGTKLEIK
notes: Recombinant mIgG2a/kappa (also made as mIgG2a-D265A); also called BL006-19-14G3-14K1 #8; candidate NO 6
B2: BL006-19-29G5-29K1 (antibody, V domains shown)
VH: QVTLKESGPGILQSSQTLSLTCSFSGFSLSTFGMGVSWIRKPSGKGLEWLAHIFWDDDKRYNPSLKSRLTISKDTSSNQVFLMINSMDIADTATYYCTRGSNWFAYWGQGTLVTVSA
VL: DIVLTQSPASLAVSLGQRATISCRASESVDSYGNSFMHWYQQKPGQPPKLLIYRASNLESGIPARFSGSGSRTDFTLTINPVEADDVATYYCQQSNEDPLTFGAGTKLELK
notes: Recombinant mIgG2a/kappa (also made as mIgG2a-D265A); also called candidate NO 14
B3: BL006-2-19G13-19K15 (antibody, V domains shown)
VH: QVQLQQPGSELVRPGASVKLSCKASGYKFTSYWMHWVKQRPGQGLEWIGSIYPGSGSTNYDEKFKRKATLTVDTFSSTASMQLSSLTSEDSAVYYCTREMAYWGQGTLVTVSA
VL: DIVITQDELSNPVTSGESVSISCRSSKSLLYKDGKTYLNWFLQRPGQSPQLLVYWMSTRASGVSDRFSGSGSGTDFTLEISRVKAEDVGVYYCQQVVEYPFTFGTGTKLGIK
notes: Recombinant mIgG2a/kappa (also made as mIgG2a-D265A); also called candidate NO 9
B4: BL006-8-3G9-3K4 (antibody, V domains shown)
VH: QVQLQQSGAELVRPGASVKLSCKASGYRFTDYEMEWVKQTPVHGLEWIGAIDPETGGTAYNQKFKGKATVTADKSSRTAYMELRSLTSEDSAVYYCTREGDGSYGAYWGQGTLVTVSA
VL: DVMMTQTPLSLPVSLGDQASISCRSSQSIVYSNGNTYLEWYLQKPGQSPKLLMYKVSNRFSGVPDRFSGSGSGTDFTLKISRVEAEDLGVYYCFQGSHAPWTFGGGTKLEIK
notes: Recombinant mIgG2a/kappa (also made as mIgG2a-D265A); also called BL006-8-3G9-3K4 #6; candidate NO 4

Legend:
[1] = molecular target: T1, human CD96 short isoform v2 expressed on CHO cells (human, UniProt P40200 22-585); experiment: FCM on hCD96v2-CHO cells
T1 construct: also called hCD96v2; CD96v2; not shown: C-terminal HA-tag
T1 sequence: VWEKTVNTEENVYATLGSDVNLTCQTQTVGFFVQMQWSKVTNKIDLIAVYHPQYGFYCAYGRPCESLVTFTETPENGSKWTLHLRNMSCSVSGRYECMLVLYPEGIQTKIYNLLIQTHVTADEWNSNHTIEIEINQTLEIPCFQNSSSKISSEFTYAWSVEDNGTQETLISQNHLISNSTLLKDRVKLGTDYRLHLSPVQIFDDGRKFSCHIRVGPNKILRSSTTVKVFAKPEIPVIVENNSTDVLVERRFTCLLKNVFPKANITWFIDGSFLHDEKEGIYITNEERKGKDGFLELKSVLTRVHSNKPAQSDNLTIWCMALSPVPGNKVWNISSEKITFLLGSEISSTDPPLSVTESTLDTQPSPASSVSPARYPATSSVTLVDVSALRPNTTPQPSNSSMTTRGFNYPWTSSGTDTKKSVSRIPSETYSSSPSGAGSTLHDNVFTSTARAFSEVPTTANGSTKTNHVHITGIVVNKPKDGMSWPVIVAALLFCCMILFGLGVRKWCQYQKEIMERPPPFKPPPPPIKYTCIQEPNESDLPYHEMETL
Protocol: FIG. 6: Binding profiles of anti-hCD96 antibodies on human CD96-transfected CHO cells (hCD96v2, short isoform). CHO cells expressing hCD96v2 were incubated with serial dilution of the indicated mIgG1 or mIgG2a anti-CD96 or isotype control antibodies. […] The results are expressed as the difference of mean fluorescence intensity (delta MFI) between cells stained with antibodies and cells without antibodies. Dose response curves were obtained from GraphPad prism software using a non-linear regression fit with a variable slope model (4 parameters). To simplify the reading, results from the various anti-hCD96 candidates are shown on 4 different panels.
The capacity of the identified mouse anti-CD96 antibodies to recognize the cell membrane expressed human CD96 was further analyzed by flow cytometry (FCM) by using CHO cells stably transfected with the CD96 short isoform v2 (CD96v2; Genbank accession number NM_005816, flanked in C-terminus with HA-tag) (SEQ ID NO: 268).
Mouse anti-CD96 antibodies and isotype control antibodies were incubated at various concentrations from 10 μg/mL to 4.6 ng/mL with CHO cells expressing human CD96 at +4° C. for 30 minutes. […] The differences between the mean fluorescence intensity (MFI) obtained for each of the antibody concentration and the intensity obtained in absence of primary antibody (delta-MFI), were calculated and plotted against the concentrations of antibodies.

[2] = molecular target: T2, mouse CD96 expressed on CHO cells (mouse, UniProt Q3U0X8 22-602); experiment: FCM on CHO cells expressing mouse CD96
T2 construct: whole, on cells; also called mCD96
T2 sequence (looked up): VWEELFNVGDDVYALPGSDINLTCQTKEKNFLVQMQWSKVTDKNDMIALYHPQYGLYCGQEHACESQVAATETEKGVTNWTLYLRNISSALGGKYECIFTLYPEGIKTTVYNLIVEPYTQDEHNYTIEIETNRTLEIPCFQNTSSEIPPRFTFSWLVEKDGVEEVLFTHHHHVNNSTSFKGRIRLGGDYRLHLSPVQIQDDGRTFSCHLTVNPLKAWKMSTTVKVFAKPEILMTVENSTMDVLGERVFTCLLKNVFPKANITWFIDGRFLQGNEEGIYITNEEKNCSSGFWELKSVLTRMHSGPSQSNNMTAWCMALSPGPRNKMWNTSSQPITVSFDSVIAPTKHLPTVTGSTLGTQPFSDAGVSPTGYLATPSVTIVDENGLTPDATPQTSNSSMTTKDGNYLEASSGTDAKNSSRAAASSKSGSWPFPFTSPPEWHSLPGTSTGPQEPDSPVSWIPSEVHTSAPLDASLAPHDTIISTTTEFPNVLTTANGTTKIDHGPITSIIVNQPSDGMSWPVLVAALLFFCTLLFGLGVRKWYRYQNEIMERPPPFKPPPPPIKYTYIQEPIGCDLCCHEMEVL
From the text: (§1) The capacity of the identified mouse anti-human CD96 antibodies to recognize the CD96 protein from other species was further analyzed by flow cytometry by using CHO cells expressing the mouse or the rhesus CD96. The expression of the species-specific CD96 on CHO cell surface was confirmed by using staining with appropriate anti-CD96 antibodies and flow cytometry on non-fixed cells. The rat anti-mCD96 antibody clone #630612 (R&D Systems) and the candidate BL006-9-1 (positive by ELISA on rhesus CD96) were used to confirm the expression of rhesus CD96, while the clone 6A6 (rat IgG2a, e-Bioscience) was used to verify the expression of mouse CD96.
(§2) Mouse anti-CD96 antibodies and isotype control antibodies were incubated at 10 or 1 μg/mL with CHO cells expressing different CD96 species at +4° C. for 30 minutes.

[3] = molecular target: T1, human CD96 short isoform v2 expressed …; experiment: FCM, inhibition of hCD155-Fc binding to hCD96v2-CHO cells
Protocol: (§3) All candidates except BL006-2-19 that bound very weakly on hCD96v2 by FCM were tested for their capacity to inhibit the binding of human CD155 to hCD96v2 stably expressed on CHO cells. Human CD96-transfected CHO cells (3×10⁵ cells/well of 96-well plate) were incubated at +4° C. for 30 minutes with serial dilutions of anti-CD96 antibodies or isotype control antibody (in mIgG2a or mIgG2aD265A format) in the presence of 4 μg/mL of biotinylated hCD155-Fc (produced and biotinylated at BliNK).
(§4) % inhibition=(1−(MFI_wAb&CD155−MFI_CHO)/(MFI_wCD155−MFI_CHO))×100, where MFI_wAb&CD155 is the Mean Intensity Fluorescence (MFI) obtained with the hCD96-CHO cells incubated with the tested antibody and hCD155-hFc; MFI_CHO is the MFI obtained in the absence of hCD155 and mAbs; and MFI_wCD155 is the fluorescence with hCD155 but without pre-incubation with antibody (0% CD155 binding inhibition). The % of inhibition was plotted against antibody concentration and the IC50 values were calculated by using a nonlinear regression analysis model of the GraphPad Prism software.

[4] = molecular target: T1, human CD96 short isoform v2 expressed …; experiment: FCM, inhibition of hCD155-Fc binding to hCD96v2-CHO cells; relative IC50
Protocol: as §3, §4

[5] = molecular target: T3, rhesus CD96 transiently expressed on CHO cells (rhesus, UniProt P40200 22-585 (human entry)); experiment: flow cytometry on CHO cells transiently expressing rhesus CD96; antibody at 1 (thin line) and 10 µg/ml (thick dashed line), filled grey = isotype control
T3 construct: also called rhesus CD96, short isoform
T3 chain: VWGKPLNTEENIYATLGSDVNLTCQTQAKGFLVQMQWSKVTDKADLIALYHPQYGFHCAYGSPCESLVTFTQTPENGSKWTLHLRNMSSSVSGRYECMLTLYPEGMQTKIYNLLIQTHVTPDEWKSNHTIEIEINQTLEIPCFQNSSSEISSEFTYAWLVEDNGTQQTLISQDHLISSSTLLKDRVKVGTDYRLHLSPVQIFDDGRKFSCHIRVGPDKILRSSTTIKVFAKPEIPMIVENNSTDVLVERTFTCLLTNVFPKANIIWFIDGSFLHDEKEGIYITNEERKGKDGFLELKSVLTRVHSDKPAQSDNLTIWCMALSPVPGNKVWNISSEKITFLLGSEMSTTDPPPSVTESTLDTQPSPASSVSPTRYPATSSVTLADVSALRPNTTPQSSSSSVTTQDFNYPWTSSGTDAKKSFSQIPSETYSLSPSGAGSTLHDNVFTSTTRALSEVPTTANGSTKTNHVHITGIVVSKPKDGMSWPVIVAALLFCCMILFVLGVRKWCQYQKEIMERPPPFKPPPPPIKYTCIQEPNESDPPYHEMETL
Protocol: FIG. 7: Binding profiles of anti-CD96 antibodies on CHO cells transfected with rhesus CD96. Anti-CD96 antibodies or the corresponding isotype control mAbs were tested for their capacity to recognize rhesus CD96 transiently expressed on CHO cells by flow cytometry. Each histogram represents the overlay of the fluorescence intensity obtained for each antibody tested at 1 (black line) and 10 μg/ml (thick dashed black line) and compared to the fluorescence obtained with an isotypic control (filled grey histogram).
as §1, §2

[6] = molecular target: T4, human CD96 long isoform v1 transiently expressed on CHO cells (human, UniProt P40200 22-585); experiment: FCM on hCD96v1-CHO cells, 10 µg/ml
T4 construct: also called hCD96v1; CD96v1
T4 sequence: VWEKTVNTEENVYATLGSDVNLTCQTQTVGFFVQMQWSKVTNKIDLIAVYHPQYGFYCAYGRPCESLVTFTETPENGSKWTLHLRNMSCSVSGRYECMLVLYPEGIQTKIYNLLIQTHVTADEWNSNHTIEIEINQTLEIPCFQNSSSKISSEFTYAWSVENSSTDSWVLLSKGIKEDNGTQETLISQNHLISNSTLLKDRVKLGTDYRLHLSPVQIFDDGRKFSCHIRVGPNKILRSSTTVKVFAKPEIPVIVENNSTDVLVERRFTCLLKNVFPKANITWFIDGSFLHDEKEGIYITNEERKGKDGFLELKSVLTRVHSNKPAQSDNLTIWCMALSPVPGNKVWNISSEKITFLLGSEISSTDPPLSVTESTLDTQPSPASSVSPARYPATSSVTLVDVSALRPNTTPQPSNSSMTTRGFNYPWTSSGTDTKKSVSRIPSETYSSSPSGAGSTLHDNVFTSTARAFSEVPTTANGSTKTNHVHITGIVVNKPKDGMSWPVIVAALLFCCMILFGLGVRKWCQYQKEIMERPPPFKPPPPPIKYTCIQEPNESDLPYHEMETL

[7] = molecular target: T1, human CD96 short isoform v2 expressed …; experiment: flow cytometry, indirect staining of transiently transfected CHO-S cells; median % of stained cells, 3-4 experiments
From the text: Expression plasmids containing either the complete sequence of hCD96v2 or different extracellular domains (D1 to D3) of hCD96v2 or combinations thereof (D1D2, D1D3 or D2D3) were transiently transfected in CHO-S cells. Each transient transfect was indirectly stained with the different anti-CD96 candidates and analyzed by flow cytometry. Represented is the median % of stained CHO-S transfect obtained from 3 to 4 independent experiments for each anti-CD96 tested.
Expression vectors coding for truncated extracellular domains of hCD96v2 (short isoform v2) were constructed to map, within the 3 described immunoglobulin domains of hCD96v2, the epitopes recognized by the anti-hCD96 candidates. All expression vectors constructed contained the signal peptide, the D4 domain, the transmembrane, the intracellular chain of […] plus a HA-Tag to monitor transfection efficiency of the various constructs. The expression vectors contained only D1, D2, D3 or combinations of those 3 domains (D1D2, D1D3, D2D3). The anti-hCD96 antibodies were tested by FCM for their capacity to recognize the truncated CD96 proteins transiently expressed on CHO-S cells.

Row | Binder | EC50 [1] | Maximum binding (delta MFI) [1] | binding result [2] | Maximal Inhibition Capacity (%) [3] | IC50 [4] | binding result [5] | binding result [6] | binding result [7]
1 | B1 | 3.1 nM | 694000 delta MFI | no binding (tested: 1 and 10 µg/mL) | 41.4% | 2.67 nM | binds | – | –
2 | B2 | 2.98 nM | 753000 delta MFI | no binding (tested: 1 and 10 µg/mL) | 43.1% | 5.24 nM | binds | – | –
3 | B3 | – | – | no binding (tested: 1 and 10 µg/mL) | – | – | binds | binds | binds
4 | B4 | 4.68 nM | 235000 delta MFI | no binding (tested: 1 and 10 µg/mL) | < 5% | – | no binding (tested: 10 µg/ml) | – | –
